Measurements published in US20130280162A1.

Molecular target: human uPAR on 293/uPAR cells (human) (UniProt Q03405)
Experiment: cell-based or functional assay

uPAR-lockV2 (SMB-GFD/hFc, disulphide-linked homodimer) (Fc fusion), sequence (chain): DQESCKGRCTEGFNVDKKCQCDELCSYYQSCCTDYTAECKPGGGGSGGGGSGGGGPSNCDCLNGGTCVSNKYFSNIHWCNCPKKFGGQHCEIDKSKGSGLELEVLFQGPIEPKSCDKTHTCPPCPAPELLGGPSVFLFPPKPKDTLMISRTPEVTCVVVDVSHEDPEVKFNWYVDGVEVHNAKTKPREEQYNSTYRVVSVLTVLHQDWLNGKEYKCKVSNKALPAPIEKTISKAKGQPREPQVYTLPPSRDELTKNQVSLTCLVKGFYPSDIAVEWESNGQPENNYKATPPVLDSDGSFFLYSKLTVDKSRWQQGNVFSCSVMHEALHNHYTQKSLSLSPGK
human uPAR on 293/uPAR cells (human), sequence (Q03405 23-305): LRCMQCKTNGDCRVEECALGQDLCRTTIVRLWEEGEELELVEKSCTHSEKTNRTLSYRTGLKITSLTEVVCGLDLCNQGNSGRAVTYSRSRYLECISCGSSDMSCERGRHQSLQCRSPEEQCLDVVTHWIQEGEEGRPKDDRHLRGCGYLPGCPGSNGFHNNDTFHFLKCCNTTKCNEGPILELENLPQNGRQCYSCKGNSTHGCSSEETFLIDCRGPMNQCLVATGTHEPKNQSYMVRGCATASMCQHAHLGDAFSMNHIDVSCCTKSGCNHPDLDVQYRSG

## uPAR-lockV2 (SMB-GFD/hFc, disulphide-linked homodimer) (Fc fusion)
  IC50, inhibition of 293/uPAR cell adhesion to VN(1-66)/Fc^RAD (RTCA impedance): 0.59 nM
